T1: human CDH17, full length, expressed on cells (HEK293-hCDH17); AsPC-1, HCT-8, AGS, LoVo, KATO III, HT-29 tumor … (human, UniProt Q12864 23-832)
T1 construct: also called human CDH17 expressed on tumor cells
T1 sequence: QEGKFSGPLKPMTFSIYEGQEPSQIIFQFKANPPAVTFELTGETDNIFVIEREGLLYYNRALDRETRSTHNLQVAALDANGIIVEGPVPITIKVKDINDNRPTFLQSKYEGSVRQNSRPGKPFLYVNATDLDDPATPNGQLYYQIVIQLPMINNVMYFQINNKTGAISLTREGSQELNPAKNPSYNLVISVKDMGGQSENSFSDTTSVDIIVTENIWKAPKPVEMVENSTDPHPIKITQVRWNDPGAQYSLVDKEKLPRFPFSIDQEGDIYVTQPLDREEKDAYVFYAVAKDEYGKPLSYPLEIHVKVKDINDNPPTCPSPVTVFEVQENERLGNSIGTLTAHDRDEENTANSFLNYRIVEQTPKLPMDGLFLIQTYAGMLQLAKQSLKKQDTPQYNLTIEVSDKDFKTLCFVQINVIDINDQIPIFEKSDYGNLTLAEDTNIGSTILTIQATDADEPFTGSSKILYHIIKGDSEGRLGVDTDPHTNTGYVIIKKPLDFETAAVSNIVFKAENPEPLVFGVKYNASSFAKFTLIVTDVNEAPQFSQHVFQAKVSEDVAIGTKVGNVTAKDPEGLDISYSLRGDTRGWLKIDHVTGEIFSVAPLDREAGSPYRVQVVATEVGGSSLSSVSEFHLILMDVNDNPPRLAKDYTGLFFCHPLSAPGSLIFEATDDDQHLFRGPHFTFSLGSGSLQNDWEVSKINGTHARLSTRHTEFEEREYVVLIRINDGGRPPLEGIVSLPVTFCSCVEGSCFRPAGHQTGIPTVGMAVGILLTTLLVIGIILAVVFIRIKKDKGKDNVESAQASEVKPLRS

T2: hCDH17-his (full length extracellular domain of human CDH17, Q23-M787, his tag at the C-terminal) (human, UniProt Q12864 23-787)
T2 construct: Limits of the construct (UniProt Q12864, Q23-M787, C-terminal his tag); also called human CDH17-his protein; human CDH17 protein
T2 sequence: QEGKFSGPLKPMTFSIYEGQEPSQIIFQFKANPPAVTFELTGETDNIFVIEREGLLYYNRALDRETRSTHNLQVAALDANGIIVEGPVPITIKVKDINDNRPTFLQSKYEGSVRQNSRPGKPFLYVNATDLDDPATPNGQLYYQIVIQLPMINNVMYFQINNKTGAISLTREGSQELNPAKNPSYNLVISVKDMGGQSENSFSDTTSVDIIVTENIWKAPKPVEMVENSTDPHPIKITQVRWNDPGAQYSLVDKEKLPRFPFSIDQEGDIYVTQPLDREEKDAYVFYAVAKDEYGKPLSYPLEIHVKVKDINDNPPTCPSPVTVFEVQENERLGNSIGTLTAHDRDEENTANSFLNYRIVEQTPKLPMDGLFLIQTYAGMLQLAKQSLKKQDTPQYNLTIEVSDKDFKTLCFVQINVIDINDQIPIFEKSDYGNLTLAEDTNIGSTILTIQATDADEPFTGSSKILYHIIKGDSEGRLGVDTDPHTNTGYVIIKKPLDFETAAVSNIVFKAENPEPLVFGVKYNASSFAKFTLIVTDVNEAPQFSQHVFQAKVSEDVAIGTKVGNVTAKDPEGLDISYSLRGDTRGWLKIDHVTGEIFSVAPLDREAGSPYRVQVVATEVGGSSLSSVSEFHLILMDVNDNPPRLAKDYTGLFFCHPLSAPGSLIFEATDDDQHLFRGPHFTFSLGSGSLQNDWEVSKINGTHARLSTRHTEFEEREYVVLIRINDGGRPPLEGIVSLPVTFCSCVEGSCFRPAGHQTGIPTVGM

T3: human CDH16 protein (hCDH16-his, Novoprotein, Cat. No. CJ16) (human, UniProt O75309 19-786)
T3 construct: Bought; also called human CDH16-his
T3 sequence (looked up): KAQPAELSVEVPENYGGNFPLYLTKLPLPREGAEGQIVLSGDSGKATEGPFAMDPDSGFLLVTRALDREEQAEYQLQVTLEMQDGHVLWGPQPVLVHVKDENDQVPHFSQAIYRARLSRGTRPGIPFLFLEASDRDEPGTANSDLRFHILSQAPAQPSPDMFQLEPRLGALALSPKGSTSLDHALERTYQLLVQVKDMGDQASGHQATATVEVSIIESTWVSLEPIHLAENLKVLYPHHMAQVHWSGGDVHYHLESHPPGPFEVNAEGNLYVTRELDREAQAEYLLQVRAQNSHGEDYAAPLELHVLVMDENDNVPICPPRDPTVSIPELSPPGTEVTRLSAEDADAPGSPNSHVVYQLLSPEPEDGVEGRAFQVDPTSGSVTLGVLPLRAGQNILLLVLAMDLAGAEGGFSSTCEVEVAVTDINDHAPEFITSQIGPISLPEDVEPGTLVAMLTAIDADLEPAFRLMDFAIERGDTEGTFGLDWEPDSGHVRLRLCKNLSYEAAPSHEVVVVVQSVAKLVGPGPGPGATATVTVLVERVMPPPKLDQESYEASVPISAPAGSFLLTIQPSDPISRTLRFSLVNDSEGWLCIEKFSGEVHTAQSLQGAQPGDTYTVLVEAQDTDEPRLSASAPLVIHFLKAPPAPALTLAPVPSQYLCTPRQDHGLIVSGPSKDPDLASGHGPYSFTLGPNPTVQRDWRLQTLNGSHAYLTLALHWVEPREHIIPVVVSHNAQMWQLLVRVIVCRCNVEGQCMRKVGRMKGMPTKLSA


Key:
[1] = target: T1, human CDH17, full length, expressed on …; test: flow cytometry, AGS cells
[2] = target: T2, hCDH17-his (full length extracellular …); test: SPR (Biacore 8K), antibody captured on Protein A chip, hCDH17-his injected
[3] = target: T3, human CDH16 protein (hCDH16-his, …); test: ELISA, hCDH16-his coated at 1 ug/mL
[4] = target: T2, hCDH17-his (full length extracellular …); test: ELISA, hCDH17-his coated at 2 ug/mL
[5] = target: T1, human CDH17, full length, expressed on …; test: flow cytometry, HEK293-hCDH17 cells
[6] = target: T1, human CDH17, full length, expressed on …; test: flow cytometry, LoVo, HCT-8 and AsPC1 cells
[7] = target: T2, hCDH17-his (full length extracellular …); test: SPR (Biacore 8K), two doses, antibody captured on Protein A chip, hCDH17-his at 25 nM and 100 nM

Binder | binding result [1] | binding result [2] | binding result [4] | binding result [5] | binding result [6] | binding result [7] | binding result [3]
152A1D12-z17 (antibody, V domains shown, Humanized, human IgG1 constant region; also called 152A1D12 HU-VH1-3 / HU-VL2-0) VH: QVQLVQSGAEVKKPGASVKVSCKASGYTFTDYNMHWVKQAPGQRLEWIGYIYRNNGYNGYNQKFKNKATLTVDTSASTAYMELSSLRSEDTAVYYCARNYWRGAMDYWGQGTTVTVSS VL: EIVLTQSPATLSLSPGERATLSCSASSSISYMHWYQQKPGQAPRLLIYDTSKLASGIPARFSGSGSGTDFTLTISSLEPEDFAVYYCHQRSSYPWTFGGGTKVEIK | binds | binds |  |  |  |  | 
69E3H11-z12a27 (antibody, V domains shown) VH: QVQLVQSGAEVKKPGASVKVSCKASGYTFTTYWMHWVKQAPGQRLEWIGEIDPSDSYANYNQKFKGKATLTVDKSASTAYMELSSLRSEDTAVYYCALYYGYGDWGQGTTVTVSS VL: EIVLTQSPGTLSLSPGERATLSCSVSSSISSIHLHWYQQKPGQAPRLLIYRTRNRASGIPDRFSGSGSGTDFTLTISRLEPEDFAVYYCQQGSNLPLTFGQGTRLEIK |  |  |  |  | binds | binds | 
69E3H11-z12a28 (antibody, V domains shown) VH: QVQLVQSGAEVKKPGASVKVSCKASGYTFTTYWMHWVKQAPGQRLEWIGEIDPSDSYANYNQKFKGKATLTVDKSASTAYMELSSLRSEDTAVYYCALYYGYGDWGQGTTVTVSS VL: EIVLTQSPGTLSLSPGERATLSCSVSSSISSIHLHWYQQKPGQAPRLLIYRTKNLASGIPDRFSGSGSGTDFTLTISRLEPEDFAVYYCQQGSNLPLTFGQGTRLEIK |  |  |  |  | binds | binds | 
69E3H11-z12a42 (antibody, V domains shown) VH: QVQLVQSGAEVKKPGASVKVSCKASGYTFTTYWMHWVKQAPGQRLEWIGEIDPSDSYANYNQKFKGKATLTVDKSASTAYMELSSLRSEDTAVYYCALYYGYGDWGQGTTVTVSS VL: EIVLTQSPGTLSLSPGERATLSCSVSASISRIHLHWYQQKPGQAPRLLIYRTRNRASGIPDRFSGSGSGTDFTLTISRLEPEDFAVYYCQQGSNLPLTFGQGTRLEIK |  |  |  |  | binds | binds | 

Continued, in another order:

binding result [1] | binding result [2] | binding result [4] | binding result [5] | binding result [6] | binding result [7] | Binder | binding result [3]
 |  | binds | binds |  |  | 134C7B1 chimeric mAb (antibody, V domains shown, Mouse variable regions fused to human IgG1 constant region) VH: AVQLQQSGPELLKPGASVKISCKASGYTFTDYTMHWVKQSHGKSLEWIGGINPNYGGTSYNETFKDKATLTVDKSSNTAYMELRSLTSEDSAVYYCARIPYGSYPMDYWGQGTSVTVSS VL: DIVMSQSPSSLTVSVGEKVTMSCKSSQSLLYSSNQKIYLAWYQQKPGQSPKLLISWASTRESGVPDRFTGSGSGTDFTLTISSVKAEDLADYYCQQYYRYRTFGGGTKLEIK | no binding (tested: titrated from 100 nM)
 |  | binds | binds |  |  | 152A1D12 chimeric mAb (antibody, V domains shown, Mouse variable regions fused to human IgG1 constant region) VH: EVQLQQSGPELVKPGASVKISCKASGYTFTDYNMHWVKQSHGKSLEWIGYIYRNNGYNGYNQKFKNKATLTVDSSSSTAYMELRSLTSEDSAVYYCARNYWRGAMDYWGQGTSVTVSS VL: QIVLTQSPAIMSASPGEKVTMTCSASSSISYMHWYQQKPGTSPKRWIYDTSKLASGVPARFSGSGSGTSYSLTISSMEAEDAGTYYCHQRSSYPWTFGGGTKLEIK | no binding (tested: titrated from 100 nM)
 |  | binds | binds |  |  | 143H10E4 chimeric mAb (antibody, V domains shown, Mouse variable regions fused to human IgG1 constant region) VH: QVQLQQSDAELVKPGASVKISCKASGSTFTDHTIHWVKQRPEQGLEWIGYIYPVYGYTQNNEKFKGKATLTADKSSSTAYMQLNSLTSEDSAVYFCARSRDSNPYYFDYWGQGTTLTVSS VL: EIVLTQSPALMAASPGEKVTITCTVSSSISSSNLHWYQQKSGTSPKPWIYGTSNLASGVPVRFSGSGSGTSYSLTISSMEAEDAATYYCQQWSSYPFTFGSGTKLKMK | no binding (tested: titrated from 100 nM)
 |  | binds | binds |  |  | 155B11C6 chimeric mAb (antibody, V domains shown, Mouse variable regions fused to human IgG1 constant region) VH: QVQLQQSGAELARPGASVKMSCKASGYTFTSYTMHWVKQRPGQGLEWIGYIDPKSDYNYYNQKFKDKATLTADKSSSTAYMQLSGLTSEDSTVYYCARGFFKGYFDVWGAGTTVTVSS VL: EIVLTQSPPLMAASPGEKVTITCSVSSSISSSNLHWYQQKSETSPKPWIYGTSNLASGVPIRFSGSGSGTSYSLTISSMEAEDAATYYCQQWTSYPFTFGAGTKLELK | no binding (tested: titrated from 100 nM)
 |  | binds | binds |  |  | 120B10C5 chimeric mAb (antibody, V domains shown, Mouse variable regions fused to human IgG1 constant region) VH: QVQLQQSGAELAKPGASVKLSCRTSGYTFTNYWMHWVKQRPGQGLEWIGYINPSSGYTKYNQKFKDKATLTADKSSSTAYMQLSSLTYEDSAVHYCARSLNYYDSGYWYFDVWGTGTAVTVSS VL: DIVLTQSPASLAVSLGQRATISCRASQSVSTSSYSYMHWYQQKPGQPPKLLIKYASNLESRVPARFSGSGSGTDFTLNIHPVEEEDSATYYCQHSWEIPWTFGGGTKLEIK | no binding (tested: titrated from 100 nM)
 |  | binds | binds |  |  | 16C18 chimeric mAb (antibody, V domains shown, also called 16C8) VH: QVQLQQSGAELAKPGTSVKMSCKASGYNFTNYWMNWVKQRPGQGLEWIGTFNPSYGYTEYNQKFKDKAILTADKSSSTAYMQLNSLTSEDSAVYYCARRSSHFDYWGQGTTLTVSS VL: DIVMSQSPSSLAVSAGEKVTMSCKSSQSLLNSRTRTNYLAWYQQKPGQSPKLLIYWASTRESGVPDRFTGSGSGTDFTLTISSVQAEDLAVYYCKQSYNLPTFGGGTKLEIK | no binding (tested: titrated from 100 nM)
